Data set [1] is described as follows: Differential scanning calorimetry in PBS of FN3 domains. The data set is classed as physicochemical. The settings on record: DSC in PBS; c-Met-binding FN3 domains. The source says: A subset of the EGFR binding FN3 domains was engineered to increase the conformational stability of each molecule. The mutations L17A, N46V, and E86I (described in US Pat. Publ. No. 2011/0274623) were incorporated into clones P54AR4-83, P54CR4-31, and P54AR4-37 by DNA synthesis. […] Differential scanning calorimetry in PBS was used to assess the stability of each mutant in order to compare it to that of the corresponding parent molecule.
Thermal Stability of c-Met-Binding FN3 Domains Differential scanning calorimetry in PBS was used to assess the stability of each FN3 domain.

The subject of another data set is H292 cells. The data set can be described thus: Inhibition of proliferation of H292 cells (HGF-induced). The data set is classed as cell-based, human. An excerpt:
Inhibition of tumor cell proliferation can be measured using standard methods and methods described herein.
It was verified that the enhanced potency for inhibition of EGFR and c-Met phosphorylation with the bispecific EGFR/c-Met molecules translated into an enhanced inhibition of signaling and proliferation. […] The proliferation assay was completed using different combinations EGFR and c-Met binding FN3 domains either as a mixture or linked in a bispecific format. […] This confirmed that the avidity effect observed at the level of the receptors (FIG. 6 and FIG. 7) translates into an improvement in inhibiting cell signaling (Table 17) and cell proliferation (Table 18).
Select EGFR/c-Met molecules were characterized for their affinity to both EGFR and c-Met, their ability to inhibit EGFR and c-Met autophosphorylation, and their effect on proliferation of HGF cells. Binding affinity of the bispecific EGFR/c-Met molecules to recombinant EGFR and/or c-Met extracellular domain was further by surface Plasmon resonance methods using a Proteon Instrument (BioRad) according to protocol described in Example 3.

This note sets out measurements from patent US11702475B2, “Cysteine engineered fibronectin type III domain binding molecules” (Janssen Biotech, Inc., priority 2013, dated 2023).

B1: P114AR7P92-G8: c-Met-binding FN3 domain, SEQ ID NO: 36 (protein)
chain: LPAPKNLVVSRVTEDSARLSWTAPDAAFDSFVIRYFEFLGSGEAIVLTVPGSERSYDLTGLKPGTEYVVQILGVKGGYISIPLSAIFTT
modifications: c-Met binding FN3 domain
For B1, in data set [1], the “Thermal Stability (Tm)” value turned out to be 90.9 C.

B2: P114AR7P94-E5: c-Met-binding FN3 domain, SEQ ID NO: 42 (protein)
chain: LPAPKNLVVSRVTEDSARLSWTAPDAAFDSFWIRYFEFLGSGEAIVLTVPGSERSYDLTGLKPGTEYAVNIMGVKGGRVSVPLSAIFTT
modifications: c-Met binding FN3 domain
Regarding B2, the “Thermal Stability (Tm)” value in data set [1] was 80 C.

B3: P114AR7P94-A3: c-Met-binding FN3 domain, SEQ ID NO: 41 (protein)
chain: LPAPKNLVVSRVTEDSARLSWTAPDAAFDSFWIRYFEFLGSGEAIVLTVPGSERSYDLTGLKPGTEYVVNIMGVKGGKISPPLSAIFTT
modifications: c-Met binding FN3 domain
Turning to B3, the “Thermal Stability (Tm)” value in data set [1] worked out at 86.2 C.

B4: P114AR7P95-F10: c-Met-binding FN3 domain, SEQ ID NO: 47 (protein)
chain: LPAPKNLVVSRVTEDSARLSWTAPDAAFDSFWIRYFEFTTAGEAIVLTVPGSERSYDLTGLKPGTEYVVNIMGVKGGSISPPLSAIFTT
modifications: c-Met binding FN3 domain
With B4, the “Thermal Stability (Tm)” value in data set [1] was 85.2 C.

B5: P114AR7P95-G7: c-Met-binding FN3 domain, SEQ ID NO: 48 (protein)
chain: LPAPKNLVVSRVTEDSARLSWTAPDAAFDSFWIRYFELLSTGEAIVLTVPGSERSYDLTGLKPGTEYVVNIMGVKGGSISPPLSAIFTT
modifications: c-Met binding FN3 domain
As for B5, in data set [1], the “Thermal Stability (Tm)” value was 87.2 C.

B6: P114AR7P95-H8: c-Met-binding FN3 domain, SEQ ID NO: 49 (protein)
chain: LPAPKNLVVSRVTEDSARLSWTAPDAAFDSFWIRYFEFVSKGEAIVLTVPGSERSYDLTGLKPGTEYVVNIMGVKGGSISPPLSAIFTT
modifications: c-Met binding FN3 domain
For B6, in data set [1], the “Thermal Stability (Tm)” value was 83 C.

B7: P114AR7P92-F6: c-Met-binding FN3 domain, SEQ ID NO: 35 (protein)
chain: LPAPKNLVVSRVTEDSARLSWTAPDAAFDSFWIRYFEFLGSGEAIVLTVPGSERSYDLTGLKPGTEYVVNILGVKGGGLSVPLSAIFTT
modifications: c-Met binding FN3 domain
As for B7, in data set [1], the “Thermal Stability (Tm)” value is recorded as 76.8 C.

B8: P114AR7P95-D4: c-Met-binding FN3 domain, SEQ ID NO: 45 (protein)
chain: LPAPKNLVVSRVTEDSARLSWTAPDAAFDSFWIRYFEFLGSGEAIVLTVPGSERSYDLTGLKPGTEYVVQILGVKGGYISIPLSAIFTT
modifications: c-Met binding FN3 domain
B8: the “Thermal Stability (Tm)” value in data set [1] was 85.3 C.

B9: P114AR5P74-A5: c-Met-binding FN3 domain, SEQ ID NO: 32 (protein)
chain: LPAPKNLVVSRVTEDSARLSWTAPDAAFDSFWIRYDEVVVGGEAIVLTVPGSERSYDLTGLKPGTEYYVNILGVKGGSISVPLSAIFTT
modifications: c-Met binding FN3 domain
For B9, the “Thermal Stability (Tm)” value in data set [1] is given as 74.1 C.

B10: P114AR7P92-H5: c-Met-binding FN3 domain, SEQ ID NO: 37 (protein)
chain: LPAPKNLVVSRVTEDSARLSWTAPDAAFDSFWIRYLEFLLGGEAIVLTVPGSERSYDLTGLKPGTEYVVQIMGVKGGTVSPPLSAIFTT
modifications: c-Met binding FN3 domain
For B10, the “Thermal Stability (Tm)” value in data set [1] amounted to 87 C.

B11: P114AR7P93-G8: c-Met-binding FN3 domain, SEQ ID NO: 39 (protein)
chain: LPAPKNLVVSRVTEDSARLSWTAPDAAFDSFWIRYFEFLGSGEAIVLTVPGSERSYDLTDLKPGTEYGVTINGVKGGRVSTPLSAIFTT
modifications: c-Met binding FN3 domain
For the molecule B11, the “Thermal Stability (Tm)” value in data set [1] is given as 76.8 C.

B12: P114AR7P93-H9: c-Met-binding FN3 domain, SEQ ID NO: 40 (protein)
chain: LPAPKNLVVSRVTEDSARLSWTAPDAAFDSFWIRYFEFLGSGEAIVLTVPGSERSYDLTGLKPGTEYVVQIIGVKGGHISLPLSAIFTT
modifications: c-Met binding FN3 domain
Turning to B12, in data set [1], the “Thermal Stability (Tm)” value turned out to be 88.2 C.

B13: ECB15: bispecific SEQ ID 57: P54AR4-83V2, (AP)5, P114AR7P94-A3 (protein)
chain: MLPAPKNLVVSEVTEDSARLSWDDPWAFYESFLIQYQESEKVGEAIVLTVPGSERSYDLTGLKPGTEYTVSIYGVHNVYKDTNMRGLPLSAIFTTAPAPAPAPAPLPAPKNLVVSRVTEDSARLSWTAPDAAFDSFWIRYFEFLGSGEAIVLTVPGSERSYDLTGLKPGTEYVVNIMGVKGGKISPPLSAIFTT
modifications: bispecific EGFR/cMet binding molecule
By IC50 is commonly meant the concentration at which inhibition is half-maximal. As to B13, the IC50 in the data set on H292 cells was 23 nM.

B14: ECB94: bispecific SEQ ID 61: P54AR4-83V22, (AP)5, P114AR7P94-A3v22 (protein)
chain: MLPAPKNLVVSEVTEDSARLSWDDPWAFYESFLIQYQESEKVGEAIVLTVPGSERSYDLTGLKPGTEYTVSIYGVHNVYKDTNIRGLPLSAIFTTAPAPAPAPAPLPAPKNLVVSRVTEDSARLSWTAPDAAFDSFWIRYFEFLGSGEAIVLTVPGSERSYDLTGLKPGTEYVVNILGVKGGKISPPLSAIFTT
modifications: bispecific EGFR/cMet binding molecule
As for B14, the IC50 in the data set on H292 cells worked out at 29.6 nM.

B15: ECB96: bispecific SEQ ID 63: P54AR4-83V22, (AP)5, P114AR9P122-A7v2 (protein)
chain: MLPAPKNLVVSEVTEDSARLSWDDPWAFYESFLIQYQESEKVGEAIVLTVPGSERSYDLTGLKPGTEYTVSIYGVHNVYKDTNIRGLPLSAIFTTAPAPAPAPAPLPAPKNLVVSRVTEDSARLSWTAPDAAFDSFWIRYFEFVSKGDAIVLTVPGSERSYDLTGLKPGTEYVVNILGVKGGSISPPLSAIFTT
modifications: bispecific EGFR/cMet binding molecule
Turning to B15, the half-inhibitory concentration (IC50) in the data set on H292 cells amounted to 9480 nM.

B16: ECB106: bispecific SEQ ID 65: P54AR4-83V23, (AP)5, P114AR7P94-A3v22 (protein)
chain: MLPAPKNLVVSEVTEDSARLSWDDPHAFYESFLIQYQESEKVGEAIVLTVPGSERSYDLTGLKPGTEYTVSIYGVHNVYKDTNIRGLPLSAIFTTAPAPAPAPAPLPAPKNLVVSRVTEDSARLSWTAPDAAFDSFWIRYFEFLGSGEAIVLTVPGSERSYDLTGLKPGTEYVVNILGVKGGKISPPLSAIFTT
modifications: bispecific EGFR/cMet binding molecule
Turning to B16, the IC50 with H292 cells was found to be 484 nM.

B17: ECB97: bispecific SEQ ID 64: P54AR4-83V22, (AP)5, P114AR7P95-C5V2 (protein)
chain: MLPAPKNLVVSEVTEDSARLSWDDPWAFYESFLIQYQESEKVGEAIVLTVPGSERSYDLTGLKPGTEYTVSIYGVHNVYKDTNIRGLPLSAIFTTAPAPAPAPAPLPAPKNLVVSRVTEDSARLSWTAPDAAFDSFWIRYFEFLGSGEAIVLTVPGSERSYDLTGLKPGTEYVVNILSVKGGSISPPLSAIFTT
modifications: bispecific EGFR/cMet binding molecule
As to B17, in the data set on H292 cells, the IC50 was 31 nM.

B18: ECB95: bispecific SEQ ID 62: P54AR4-83V22, (AP)5, P114AR9P121-A6v2 (protein)
chain: MLPAPKNLVVSEVTEDSARLSWDDPWAFYESFLIQYQESEKVGEAIVLTVPGSERSYDLTGLKPGTEYTVSIYGVHNVYKDTNIRGLPLSAIFTTAPAPAPAPAPLPAPKNLVVSRVTEDSARLSWTAPDAAFDSFWIRYFEFVGSGEAIVLTVPGSERSYDLTGLKPGTEYVVNILGVKGGSISPPLSAIFTT
modifications: bispecific EGFR/cMet binding molecule
As for B18, in the data set on H292 cells, the IC50 was 383 nM.

B19: ECB107: bispecific SEQ ID 66: P54AR4-83V23, (AP)5, P114AR9P121-A6v2 (protein)
chain: MLPAPKNLVVSEVTEDSARLSWDDPHAFYESFLIQYQESEKVGEAIVLTVPGSERSYDLTGLKPGTEYTVSIYGVHNVYKDTNIRGLPLSAIFTTAPAPAPAPAPLPAPKNLVVSRVTEDSARLSWTAPDAAFDSFWIRYFEFVGSGEAIVLTVPGSERSYDLTGLKPGTEYVVNILGVKGGSISPPLSAIFTT
modifications: bispecific EGFR/cMet binding molecule
As for B19, the IC50 in the data set on H292 cells was found to be 2640 nM.
